According to the supplement of paper PMC9170038:

Tests used:
MS2 coat protein [1] = assay: apparent KD of MS2 coat protein, switch ON state; designed switch direction (-1 OFF switch, 1 ON switch): 1; higher = weaker reporter binding; conditions: FMN input: 0 or 200 uM; Eterna round: R93 (includes R88 designs)
In short: (§1)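 Designed RNA switches were transcribed on-chip from Illumina sequencing clusters and titrated with SNAP-549-labelled MS2 coat protein in twofold steps from 0.7 or 1.5 nM up to 3 µM. Each step lasted 0.8–1.5 h at first and 10–20 min by the end, in 100 mM Tris-HCl pH 7.5, 80 mM KCl and 4 mM MgCl2, without or with constant ligand. Apparent KD is the median, for each design, of fits to normalised cluster binding curves.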

MS2 coat protein [2] = assay: apparent KD of MS2 coat protein, switch OFF state (with FMN for OFF switches, without FMN for ON switches); designed switch direction (-1 OFF switch, 1 ON switch): 1; higher = weaker reporter binding; conditions: FMN input: 0 or 200 uM; Eterna round: R93 (includes R88 designs)
In short: as §1

Sequence	apparent KD of MS2 coat protein (MS2 coat protein [1]) [nM]	apparent KD of MS2 coat protein (MS2 coat protein [2]) [nM]
AGGAAACAUGAGGAUCACCCAUGUAAAAAAAUGGGAGGAUAUCCGCAUUAAUUAAAUGAAGGAGAAGGCCUAAAAA [71%, Same state of confusion2, 5]	21.6	63.1
AAACCACAUGAGGAUCACCCAUGUAGAAAUAUGGGAGGAUAUACAAAGACGAAAGUCAAAGUAGAAGGCCUAAAAG [77%, Mat - Mod of Eli, 5]	31.4	97.5
AGGAAACAUGAGGAUCACCCAUGUAAAAAUAUGGGAGGAUAUACGAAGACGAAAGUGAGAGUAGAAGGCCUAAAAG [Garnet 8]	30.9	87.7
GGGAGACAUGAGGAUCACCCAUGUGAGAAGAGGCGAGGAUAUCGAAAGAAAGAAGAGAAACGAGAAGGCGCGAGUC [salish99-SS1-062]	45.2	63.4
AAUAGGAAGAGAGAGGAUAUCCAAAGGAAAACAUGAGGAUCACCCAUGUAAAAGGUAGGAAAUUGGGAGAAGGCUCAAGAGAGAG [salish99-ss2-073]	9.55	39.9
AAAUAACAUGAGGAUCACCCAUGUUACGACUUUACAGGAUAUGUGGGUGAAAAUAGCAUGACAGAAGGGUACAGUA [SameState1 Malc#36]	205	112
AGAAAACAUGAGGAUCACCCAUGUAGAAAUAUGGGAGGAUAUACAAAGACGAAAGUCGAAGUAGAAGGCCUAAAGA [Mat - Same State 1 - Meechl mod - D123]	22	58.7
GCAAAACAUGAGGAUCACCCAUGUCAACAAAAUCAAGGAUAUGAGCCGGCAUUGCCGGCAUCAGAAGGUGAACCUU [Gemaisinve]	96.1	129
CAUCAUGCGCCUAAGGAUAUGUCCCACAAGACAUGAGGAUCACCCAUGUAGCCAAUUAAUACGGUGCAGAAGGUGGAGCGCAUGC [Qusotior]	315	1080
AAACUGGAGGACAAGGAUAUGUGCUCUACGACAUGAGGAUCACCCAUGUGAGACGUAGUAGUGAAACAGAAGGUGUCCUAUUGUU [Qulece]	11.6	27.4
AAUGAACAUGAGGAUCACCCAUGUUUUAAUAGUUGAGGAUAUAUGGGUGAAAAUAGCACAGUAGAAGGCGAGUGUA [SameState1 Malc#16]	144	133
UAAAAACAUGAGGAUCACCCAUGUAAGAUAAACACAGGAUAUGCGAAAAGAAACAAAGAAGCAGAAGGGUGAAAAU [Mat - Same State 1 - Tesla mod - 44]	17.3	64.8
AACACGCGGGCGCAGGAUAUGUCGCUGGUGACAUGAGGAUCACCCAUGUAUACCAUUGCGGUUGAGCAGAAGGGUGAGAUGCGUG [Beisesanxe]	15.9	59.5
AAUGAACAUGAGGAUCACCCAUGUUUUAAUAGUUGAGGAUAUAAGGGUGAAAAUAGCACAUUAGAAGGCGAGUGUA [SameState1 Malc#15]	39.4	38
GAAAAACAUGAGGAUCACCCAUGUAGAAAUAUGGAAGGAUAUACAAAGACGAAACUGAAAGUAGAAGGUCUAAAAG [Garnet 95]	23.2	22.1
AGGAGACAUGAGGAUCACCCAUGUAGAAGGAUGGGAGGAUAUACAAAGACGAGAGUCAGAGUAGAAGGCCUAGGGA [salish99-ss1-183(!)]	24.2	54.1
AAGACACAUGAGGAUCACCCAUGUCAAGAGAGACGAGGAUAUCUGAAAAAAAAAAAAAAAGGAGAAGGCGUGAAAA [Same State of Confusion]	33.5	69.3
CGAAAGGAGAGAGAGGAUAUCCAAAGGAAAACAUGAGGAUCACCCAUGUAGAAGGUAGGAGAUUGGGAGAAGGCUCAAGAGAGGC [salish99-ss2-150]	18.5	46.7
AAAACACAUGAGGAUCACCCAUGUAGAAAUACUGGAGGAUAUGCUAAAACGAAAGACAAUGUAGAAGGCCGAAAAG [saturn 11]	71.6	208
AAAAAACAUGAGGAUCACCCAUGUGAAAAUAUGGGAGGAUAUACAAAGACGAAAGUCAAAGUAGAAGGCCUAAAAA [Mat - Same State 1 - Eli mod - D86]	18.4	132
GAAAAACAUGAGGAUCACCCAUGUAGAAAUAUGGGAGGAUAUACAAAGUCGAAAGUCAAAGUAGAAGGCCUAAAAG [Garnet 26]	40.7	170
GAAAAACAUGAGGAUCACCCAUGUAGAGAUAUGGGAGGAUAUACGAAGACGAAAGACGAAGUAGAAGGCCUAAAAG [Garnet 58]	35.1	180

Sequence	apparent KD of MS2 coat protein (MS2 coat protein [1]) [nM]	apparent KD of MS2 coat protein (MS2 coat protein [2]) [nM]
AAAUAACAUGAGGAUCACCCAUGUUGCAACGAUACAGGAUAUGUGGGUGAAAAUAGCAUGACAGAAGGGUAAUGUA [SameState1 Malc#31]	401	35
AAUAUACAUGAGGAUCACCCAUGUUUUGGUGUAUGAGGAUAUAAAAAAAAUUAAAUAAAAUUAGAAGGCAUAAAUA [JR_SS001_Sub001]	49.2	48.7
AACAUACAUGAGGAUCACCCAUGUUAGGUGGGACUAGGAUAUCAAUCGAAAGUGUUAUAAUGAGAAGGAGUAUAAA [JR_SS001_Sub015]	127	209
UGAAGACAUGAGGAUCACCCAUGUGGGAUUAUGGGAGGAUAUACAAAGACGAGAGUCAGAGUAGAAGGCCUAGGAA [salish99-ss1-116(!)]	36.1	68
AAGAAACAUGAGGAUCACCCAUGUAAGAUAUACACAGGAUAUGCGAAAAGAAACAAAGAAGCAGAAGGGUGGAAAA [75%, Ex sub1, 10]	14.9	33.4
AAUAAACAUGAGGAUCACCCAUGUUUUAAUAGUUGAGGAUAUACGGGUGAAAAUAGCAUAGUAGAAGGCGAGUGUA [SameState1 Malc#13]	31.2	36.8
AGGAGACAUGAGGAUCACCCAUGUGAGAAGAGGCGAGGAUAUCGAAAGAAAGAAGAGAAACGAGAAGGCGCGAGUC [salish99-SS1-030]	25.6	37
UUUAGCUGCGGGCAGGAUAUGUAUUAAAAUACAUGAGGAUCACCCAUGUGCAGGUGUAACACCUGACAGAAGGGCCAAUCGCGGC [Bequre]	25	193
AAAACACAUGAGGAUCACCCAUGUAAAAACAUGAGAGGAUAUGCAUGGAAAACAUGCUAUGCAGAAGGCUCAUGUG [SS1 - 3]	23.2	34.6
AAAAAACAUGAGGAUCACCCAUGUAAAAAAAACACAGGAUAUCCCUUUUUUAAAAAAAAAGGAGAAGGGUGAAAAA [Nob's Hobby 7 - Jieux - Same State 1]	31.1	31.5
AAGAAACAUGAGGAUCACCCAUGUGAGAAUAACACAGGAUAUGCAAAAGAAAGAAAGAAAGCAGAAGGGUGAAGAA [Mat - Same State 1 - Tesla mod - 53]	23.3	59.1
UUUAAUUAUACGAAGGAUAUCGGUAAUUAGACAUGAGGAUCACCCAUGUUAUAUGGUUAAAUAUUCGAGAAGGUCGAGGGUGAAA [JR_SS002_Sub506]	30.2	32.1
GAAAAACAUGAGGAUCACCCAUGUAAAAAUAUGGGAGGAUAUUCAAACACGAAAGUCAAAGAAGAAGGCCUAAAAG [Garnet 2]	30.4	207
GGGAGACAUGAGGAUCACCCAUGUGAGAAGAGGCGAGGAUAUCGAAAGAAAGAAGAGAAACGAGAAGGCGCGAGGU [salish99-SS1-055]	39.8	72.3
GAAAAACAUGAGGAUCACCCAUGUAGAAAUAUGGGAGGAUAUACGAAGACGAAAGUCGAGGUAGAAGGCCUAAAAG [Garnet 54]	34.7	98
CGCCAAUUGGCACAGGAUAUGAGCAUGCUCACAUGAGGAUCACCCAUGUGAUUACCAACGCAAAAUCAGAAGGGUGCCCUCGUCA [Beanza]	69	92.6
AAAAAACAUGAGGAUCACCCAUGUCUUCGGACGUGAGGAUAUGUACAGACUUCGGUCUGUACAGAAGGCACAAAAA [SS1 - 1033]	38.1	397
GAGUACAUAGUACAGGAUAUAUGAAUAGUUACAUGAGGAUCACCCAUGUGCAUUUAUAUGCGCACAUAGAAGGGUGGUAGGUAUC [Mat - Same state - Malcolm Mod - D127]	38.8	29.4
AAAAAACAUGAGGAUCACCCAUGUAGAAAUAUGGAAGGAUAUGGAAACACGAAAGUGAAACCAGAAGGUCCAAAAG [77%, Mat - Mod of Eli, 9]	18	23.9
AGGAAACAUGAGGAUCACCCAUGUAUAAAAAUGGAAGGAUAUACUAAGACGAAAGUCAUAGUAGAAGGUCUAAAAA [76%, Meechl, 10]	16.6	20.7
UUUAAUUAUACGAAGGAUAUCGGUAAUUAGACAUGAGGAUCACCCAUGUUAUAAGGUUCCAUAUUCGAGAAGGUCGCGGGUGAAC [JR_SS002_Sub509]	16.1	18.2
AAAAAAAAAAGUGAGGAUAUGUGAUCGGUGACAUGAGGAUCACCCAUGUGAGGCCUUCGGGCCGGACAGAAGGCACAAAAAAAAA [Same State 2-X]	78.1	257
